We go through 40 sequences from the nanobody polyreactivity screen of Harvey et al. (2022).

A short description of this data set: yeast display, Sf9 membrane polyspecificity reagent, FACS + sequencing; frameworks hold sequencing errors. The method in brief:
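A nanobody's polyreactivity label depends on the gate it was sorted from. Yeast display cells were stained with 10% biotinylated, detergent-solubilized Sf9 membrane reagent for 1 hour at 4 °C, enriched on streptavidin microbeads and sorted by FACS. The low and high (top ~1%) gates were set on anti-HA fluorescence for expression and streptavidin fluorescence for reagent binding.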
“QVQLVESGGGLDQAGGSLRLSCAASGITFTVNARGWYREAPGKERELVAGITWSGGSTYYADSVKGRFTISRDNAKNTVYLQMNSLKPEDTAVYYCNADSDGFWSIYDYWGQGTQVTVSS”: the “polyreactivity (PSR sort gate)” value was “low polyreactivity”. As for “QVQLVESGGGLDQAGGSLRLSCAASGLTFKWYAMGWYRQAPGKERELVAAIRTSAGSTYYADSVKGRFTISRDNAKNTVYLQMNSLKPEDTAVYYCNAVGYVFRYVYQYDYWGQCTQVTVSS”, the “polyreactivity (PSR sort gate)” value is listed as “low polyreactivity”.

“QVQLVESGGGLDQAGGSLRLSCAASGLTFYKYAMGWYRQAPRKERELVASISRTGGSTYYADSVKGRFTISRDNANNTVYLQMNSLKPEDTAFYYCAARRGYYYGRVGYWGQGTQVTVSS”: the “polyreactivity (PSR sort gate)” value was “high polyreactivity”. As for “QVQLVESGGGLDQAGGSLRLSCAASGNTFIRNALGWYRQAPGIERELVAAITSGTSTYYADSVKGRFTISRDNAQKTVYLQMNSLKPEDTALYYCAKRRNYWHYYWGQGTQVTVSS”, the entry is “high polyreactivity”. As to “QVQLVESGGGLDQAGGSLRLSCAASGRIFTANVMGWYRQAPGKERELVAAIDYSGGSTYYADSVKGRFTISRDNAKNTVYLQMNSLKPEDTAVYSCNRDDYADYYHLEYDYWGQGTQVTVSS”, the “polyreactivity (PSR sort gate)” value is listed as “low polyreactivity”.

On to “QVQLVESGGGLDQAGGSLRLSCAASGRIFTTYAMGWYRQAPGKERELVAAISRSGGSTYYADSVKGRFTISRDNAKNTVYLQMNSLKPEDTAVYYCAAVPTSNSFRSSFYYWGQGTQVTVSS”, for which the “polyreactivity (PSR sort gate)” value is “high polyreactivity”. Regarding “QVQLVESGGGLDQAGGSLRLSCAASGRIFTYNTMGWYRQAPGKEREFVASITYSGSSTYYADSVKGRFTISRDNAKNTVYLEMNSLKPEVTAVYYCAHRYGYSDGDYWGQGTQVTVSS”, the “polyreactivity (PSR sort gate)” value is on record as “low polyreactivity”.

As to “QVQLVESGGGLDQAGGSLRLSCAASGRIFYYYALGWYRQAPGKERELVAAITWIGTSTYYADSVKGRFTISRDNGKNTVYLQMNSLKPEDTAVYYCAAEGWVGAWWYVLDVRYDYWGQGTQVTVSS”, the “polyreactivity (PSR sort gate)” value is “low polyreactivity”.

As to “QVQLVESGGGLDQAGGSLRLSCAASGRIGYYAMGWYRQAPGKETELVAAISYGGGSTYYADSVKGRFTISRDNAKNTVYLQLNSLKPEDTAVYYCAARWGKSWRGYGYWGQGTLVTVSS”, the “polyreactivity (PSR sort gate)” value is reported as “high polyreactivity”.

Consider “QVQLVESGGGLDQAGGSLRLSCAASGRTFEYNAMGLYRQAPGKERELVATIRYSGTSTYADSVKGRFTISRDNAKNTAYLQMNSLKPEDTAVYYCNKLGYYYDRRYDYWGQGTQVTVSS”, for which the “polyreactivity (PSR sort gate)” value is “high polyreactivity”. For the sequence “QVQLVESGGGLDQAGGSLRLSCAASGRTFGKYAMGWYRQAPGKERELVAAITGGGGTKYADSVKGRFTISRDNAKNTFYLQMNSLKPEDTAVYYCAAASGSRRHGFWGQGTQVTVSS”, the “polyreactivity (PSR sort gate)” value is on record as “high polyreactivity”. Under “QVQLVESGGGLDQAGGSLRLSCAASGRTFQGYAMGWYRQAPGKERELVAAISRSGGRTYYADSVKGRFTISRDNAKNTVYLQMNSLKPEATAVYFCATDAFRDYGYWGQGTQVTLSS” stands “high polyreactivity”; under “QVQLVESGGGLDQAGGSLRLSCAASGRTFSYYAMGWYRQAPVKERELVAGISWRGTSTYADSVKGRFTISRDNAKNTFYLQMNRLKPEHTAVYYCNAEVTGHYSYHKFDYWGQGTQVTVSS”, “low polyreactivity”. Under “QVQLVESGGGLDQAGGSLRLSCAASGRTFTHNVMGWYRQAPGKEMELVAGISSTGGSTYYADSVKVRFTISRDNAKNTVYLQMNSLKPEDTAVYYCAKQRRSFYDFFHYDYWGLGTQVTVSS” stands “low polyreactivity”; under “QVQLVESGGGLDQAGGSLRLSCAASGRTFTVNTMGWYIQAPGKERELVAAIPNGGSTNYADSVKGRFTISHDNAKNTVYLQMNSLKPEDTAVYYCAAYYYYTLYYRYDYWGQGTQVTVSS”, “low polyreactivity”; under “QVQLVESGGGLDQAGGSLRLSCAASGRTFVVYAMGWYRQAPGKERELVAAITSSGNTYYADSVKGRFTISRDNAKNTVYLQMNSLKPEDTAVYYCAAYSLYGYDYWGQGTQVTVSS”, “low polyreactivity”.

Take “QVQLVESGGGLDQAGGSLRLSCAASGRTFYTYVMGWYRQAPGKEREFLAAITYSGGSTYYADSVKGRFTISRDNAKNTVYLQMNSLKTEDSAVYYCNAEWTYSEWYGQYLEFDYWGQGTQVTVSS”: the “polyreactivity (PSR sort gate)” value was “high polyreactivity”. Under “QVQLVESGGGLDQAGGSLRLSCAASGSIFDTYAMGWYIQAPGKSWELVAAISWGGGSTYYADSVKGRFTISRDNAKNTVYLQMNSLKPEDTAVYYCATEYFFLGGWYEYWGQGTQVTVSS” stands “high polyreactivity”. As for “QVQLVESGGGLDQAGGSLRLSCAASGSIFGFYAMGWSRQAPGKERELVAAITWRGGSTYYADSVKGRFTISRDNAKNTVYLQMTILKPEDTAVYYCAATSARRQTYNFAKYDYWGQGTQVTLSS”, the entry is “low polyreactivity”. “QVQLVESGGGLDQAGGSLRLSCAASGSIFGYNGMGWYRQAPGKESEFVAAISYSGSRTYYADSVKGRFTISRDNAKNTVYLQMNSLKPEDTAVYYCATDDSHYLYRTVSAWEYDYWGQGTQVTVSS”: the “polyreactivity (PSR sort gate)” value is recorded as “low polyreactivity”. “QVQLVESGGGLDQAGGSLRLSCAASGSIFLRYAMGWYRQAPGKERELVAAITTGGGSTYYADSVKGRFTISRDNAKNTVYLQMNSLKPEDTAVYYCAKRAQYHWRGRDDYSYYYWGQGTQVTVSS”: the “polyreactivity (PSR sort gate)” value was “low polyreactivity”. Take “QVQLVESGGGLDQAGGSLRLSCAASGSIFMPNAMGWYRQAPGKERELVAAISASTSSTYYADSVKGRFTISRDNAKNTVYLEMNSLKPEDTGVYYCAAYYVFFYLEDVYYEYDYWGQGTQVTVSS”: the “polyreactivity (PSR sort gate)” value is “high polyreactivity”. Under “QVQLVESGGGLDQAGGSLRLSCAASGSIFPLYAKGWYRQAPGKERELVADITVSGGSTYYADSVKGRFTISRDYAKNTVYLQMNSLKPEDTAVYYCAKDNGPWFAYDYWGQGTHVTVSS” stands “low polyreactivity”; under “QVQLVESGGGLDQAGGSLRLSCAASGSIFRSYAMGWYRQAPGKERELVATIDRSGGSTYYADSVKGRFTISRDNAKNTVYLQMNSLKPEDTAVYYCNKTPHFPRPGFNYWGQGTQVTVSS”, “low polyreactivity”; under “QVQLVESGGGLDQAGGSLRLSCAASGSIFVLYAMGWYRQAPGKERELVAAITRSGGDTYYADSVKGRFTISRDNAKNTVYLQMNSLKPEDTAVYYCAAERSWYPWVATGYYWGQGTQVTVSS”, “low polyreactivity”.

Take “QVQLVESGGGLDQAGGSLRLSCAASGSIFVRNAMGWYRQAPGKERELVASISRRGGSTYYADSVKGRFTISRDNAKNTVYLQMNSLKPEDTAVYYCAAVVRRAPEFDYWGQGTQVTVSS”: the “polyreactivity (PSR sort gate)” value is recorded as “high polyreactivity”. As for “QVQLVESGGGLDQAGGSLRLSCAASGSNLVSNDMGWYRQAPGKERELVAAMSWSGGSTYYADSVKGRFTISRDNAKNTVYLHMNSLKPEDTAVYYCAAGFGFLFARQELEFDYWGQGTQVTVSS”, the entry is “low polyreactivity”; as for “QVQLVESGGGLDQAGGSLRLSCAASGSTFDGYAMGWYRRAPGKERELVAAITSSDGSTYYADSVKGRFTISRDNAKHTVYLQMYSLKPEDTAVYYCAAAPDWKDSLPPDMDYWGQGTQVSVSS”, “low polyreactivity”. For the sequence “QVQLVESGGGLDQAGGSLRLSCAASGSTFSRYAMGWYRQPPGKERELVAAISWRGGSTYYADSVKGRFTISRDNAKNTVYLQMNSLKPEDTAVYYCNKAGFWFVVYKRQEYWGQGTQVTVSS”, the “polyreactivity (PSR sort gate)” value was “high polyreactivity”.

For the sequence “QVQLVESGGGLDQAGGSLRLSCAASGSTFVYYAMGWYRQAPGKERELVAAITASGGGTYYADSVKGSFTISRDNAKNTVYLQMNSLKPEDTAVYYCAANDYWYSRGDNQFYYRGQGTQVTVSS”, the “polyreactivity (PSR sort gate)” value is given as “low polyreactivity”. Regarding “QVQLVESGGGLDQAGGSLRLSCAASGSTFYFYAMGWYRQAPGKEMELVAVISSGGRTYYADSVKGRFTISRDNAKNTVYLQMNSLKPEDTAVYYCAASWPSSLTYYYWGQGTQVTVSS”, the “polyreactivity (PSR sort gate)” value is reported as “low polyreactivity”. For the sequence “QVQLVESGGGLDQAGGSLRLSCAASGSTFYSYDMGWYRQAPGKEREMVAAISSGGSTYYADSVKGRFTISRDNAKNTVYLQMNSLKPEDTEVYYCAAKRRATTGYRYDYWGQGTQGTVSS”, the “polyreactivity (PSR sort gate)” value is listed as “high polyreactivity”. Under “QVQLVESGGGLDQAGGSLRLSCAASVRIFEENAMGWSRQAPGKEREFVAVITSSGGGTYYADSVKGRFTISRDKAKNTVYLQMNSLKPEDTAVYYCARADKLHTRGWGRWGSGSYSWGQGTQVTVSS” stands “low polyreactivity”; under “QVQLVESGGGLDQAGGSLRLSCAATGGTFTRKAMGWYRQAPGKERELVASITSGDTTNYADSVKGRFTISRDNAKNTVYLQMNSLKPEDTAVYYCATDTPTDRYAAYPHDPYYYWGQGTQVTVSS”, “low polyreactivity”. In the case of “QVQLVESGGGLDQAGGSLRLSCADSGSLSDWNAMVSYRQAAGKEREWVAAINWSGDTTYYADSVKGRFTISRDNAKNTFYLQMNCLNPEDTAVYYCAAELVVDYDWYDYWGQGTQVTVSS”, the “polyreactivity (PSR sort gate)” value is “high polyreactivity”.

On to “QVQLVESGGGLDQAGGSLRLSCDASGSSFRKYAMVLYRQAPGKEREFVAAISSSGGRTYYADSVKGRFTISRDNAKYTVYLQMNSLKPEDTSVYYFADDVYSDRYDYWGQGTQVTVSS”, for which the “polyreactivity (PSR sort gate)” value is “high polyreactivity”. For “QVQLVESGGGLDQAGGSLRLSCPASGNIFTGNAMGWYRQAPGKEREFVAAISSVGGSTYYADSVKGRFTISRDNAKNTVYLQMNSLKPEDTAVYYCAASRVRYSYGYPYYYWGQGTQVTVSS”, the “polyreactivity (PSR sort gate)” value was “high polyreactivity”. As for “QVQLVESGGGLDQAGGSLRLTCAASGSIFVYNAMGWYRQAPGKEREFVAAITWRGGRTYYADSVKGRFTISRDNAKNTVYLQMNSLKPEDTAVYYCAADGGSTLDYYWGQGTQVTVSS”, the entry is “low polyreactivity”. Under “QVQLVESGGGLDQAGGSLRLTCAASGSTFRVYAKGSYSQAPRKERELGAAISRSGGSTTDYADSVKGRFTISRENAKNTVYLQINSLNPEDTAVYFCSDRDYKVQKIYDYWGLGTQVTVSS” stands “low polyreactivity”. For “QVQLVESGGGLDQAGGSLSLSCAASGYTYRLYAMGWYRQAPGKERELVAAITWRGGSTYYADSVKGRFTISRDNAKNTVYLQMNSLKPEDTAVYYCAAEFYIGRQGNYWGLGTQVTVSS”, the “polyreactivity (PSR sort gate)” value was “high polyreactivity”.
